Test results published in patent US11994512B2, “Single-cell genomic methods to generate ex vivo cell systems that recapitulate in vivo biology with improved fidelity” (Massachusetts Institute of Technology, priority 2018, dated 2024).

Tested on: intracellular proteome of ENR+CD and ENR organoids
Assay: LC-MS/MS TMT proteomics of ENR+CD versus ENR organoids
Type: cell-based, C57BL/6 mice
Conditions: for change: up = enriched in ENR+CD, down = enriched in ENR, FDR<0.05 and log fold change cut-off
[1] = ENR+CD versus ENR organoids, sample pairs in aggregate (n=4, 2 technical replicates from two biological donors)
[2] = protein abundance ratio ENR+CD versus ENR organoids, sample pair M1-1, LC-MS/MS TMT proteomics
[3] = protein abundance ratio ENR+CD versus ENR organoids, sample pair M1-2, LC-MS/MS TMT proteomics
[4] = protein abundance ratio ENR+CD versus ENR organoids, sample pair M2-1, LC-MS/MS TMT proteomics
[5] = protein abundance ratio ENR+CD versus ENR organoids, sample pair M2-2, LC-MS/MS TMT proteomics
[6] = protein abundance, ENR+CD versus ENR organoids, aggregate of the four sample pairs
[7] = protein abundance, ENR+CD versus ENR organoids, replicate M1-1, log2 ratio
[8] = protein abundance, ENR+CD versus ENR organoids, replicate M1-2, log2 ratio
[9] = protein abundance, ENR+CD versus ENR organoids, replicate M2-1, log2 ratio
[10] = protein abundance, ENR+CD versus ENR organoids, replicate M2-2, log2 ratio

Row | Molecule | Average logFC [1] | M1-1 Log2 Median Normalized [2] | M1-2 Log2 Median Normalized [3] | M2-1 Log2 Median Normalized [4] | M2-2 Log2 Median Normalized [5] | change | Average logFC [6] | M1-1 Log2 Median Normalized [7] | M1-2 Log2 Median Normalized [8] | M2-1 Log2 Median Normalized [9] | M2-2 Log2 Median Normalized [10]
1 | Q4V9W2 (protein, UniProt Q4V9W2 1-153, looked up, full-length) MAVPGCNKDNVRAGCRKCGYPGHLTFECRNFLRVDPKRDIVLDVSSTSSEDSDEENEELNKLQALQEKRINEEEEKKKEKSREKIKLKKRRKRSYSSATEEDSAKQKKQKYQKKEKKKEKKNKSKKGKHHKKEKKKRKKEKRSSPYHSELTKK | −1.36 | −1.902 | −0.824 | −1.2515 | −1.464 | down | – | – | – | – | –
2 | Q4VAH7 (protein, UniProt Q4VAH7 1-463, looked up, full-length) MGQDAFMELLRSMVGLSLCKIHLLLIAGSCLGLKVTVPSYTVHGIRGQALYLPVHYGFHTPASDIQIIWLFERSHTMPKYLLGSVNKSVVPDLEYQHKFTMMPPNASLLINPLQFTDEGNYIVKVNIQGNGTLSASQKIQVTVDDPVMKPMVQFHPASGAVEYVGNITLTCQVEGGTRLVYQWRKSGKPISINSSHSFSPQNNTLWIVPVTKEDIGNYTCLVSNPVSEMESDIIMPTIYYGPYGLQVNSDKGLKVGEVFTVDLGEAVLFDCSADSYPPNTYSWIQRSDNTTHVIKHGPHLEVASEKVAQKTADYVCCAYNNITGRRDETRFTVIITSVGLEKLAQRGKSLSPLASITGISLFLIISMCLLFLWKKYQPYKAIRQKLEGRPESEYRKAQTFSGHEDALSDFGIYEFVTFPDASGVSRMSSRSSPASDGVTGQDIHGTIYEVIQHIPEQQQENTE | 1.418 | 1.047 | 1.639 | 1.2475 | 1.739 | up | – | – | – | – | –
3 | Q3V1V3 (protein, UniProt Q3V1V3 1-845, looked up, full-length) MSSKQEIMDDQRFRRVSKDPRFWEMPEKERKVKIDKRFRAMFHDKKFKLNYAVDKRGRPISHSTTEDLKRFYDLSDSDSDLSDEESKILSQKKAKQKKKQTKKEAKSIEKPIEEKKKETKKTDQKDSINKHDLNNSERVQKMKNSQKPQKIDSEISPKKDNEEFLQNKKKKRGTTDLSVEALPKGKLRTKDSSTSEMVKSSTMSSSKAKREKQSVVPVIMAKDNDGKMPDEDALEEDSDSASELGSDEESEDEIISDGKTSADEDESEEEDEEEEEDSEEEEEEEEEDESDSGPDLARGKGNVETSSEDEDDLADLFPEEPGFEHAWRELDKDAPRADEITRRLAVCNMDWDRLKAKDLLALFNSFKPKGGVVFSVKIYPSEFGKERMKEEQVQGPVELLSIPEDAPEKDWASREKLRDYQFKRLKYYYAVAECDSPETASKIYEDCDGLEFESSCSFIDLRFIPDDITFDDEPKDVALEVDLTAYKPKYFTSAAMGTSTVEITWDETDHERITTLNRKFKKDELLDMDFQAYLASSSEDEEEVEEAPEGEEGVNIGEDGKTKKSQKDDEEQIAKYRQLLQVIQEKEKKGKENDMEMEIKWVPGLKESAEEMVKNKLEGKDKLTPWEQFLEKKKEKKRLKKKQKALAEEDSEDELPSDVDFNDPYFAEEVKKIGIKKKSMKSAKDSASSEEETDLEKQKAEMALLVMDEEEDSKKHFNYDKIVEHQNLSKKKKKQLMKKKELVEDDFEVNVSDARFQAMYTSHLFNLDPSDPNFKKTKAMEKILEEKARHRERKEELLIQAVERAQQDTGKPTQKQPMDPALSMLIKSVKNKTEQFQARKKQRVK | – | – | – | – | – | down | −1.244 | −1.45 | −0.805 | −0.9155 | −1.805
4 | Q3V3I2 (protein, UniProt Q3V3I2 1-354, looked up, full-length) MGSGISSESKESARRSKELEKKLQEDAERDARTVKLLLLGAGESGKSTIVKQMKIIHKNGYSKQECMEFKAVIYSNTLQSILAIVKAMATLGIDYVNPRSREDQEQLHSMANTLEDGDMTPQLAEIIKRLWGDPGIQACFERASEYQLNDSAAYYLNDLDRLTAPGYVPNEQDVLHSRVKTTGIIETQFSFKDLNFRMFDVGGQRSERKKWIHCFEGVTCIIFCAALSAYDMVLVEDEEVNRMHESLHLFNSICNHKYFATTSIVLFLNKKDLFQEKVAKVHLSICFPEYTGPNTFEDAGNYIKNQFLDLNLKKEDKEIYSHMTCATDTQNVKFVFDAVTDIIIKENLKDCGLF | – | – | – | – | – | down | −1.949 | −1.715 | −1.092 | −2.2685 | −2.719
5 | Q3UYK3 (protein, UniProt Q3UYK3 1-1264, looked up, full-length) MWVNPEEVLLANALWITERANPYFILQRRKGHGGDGGGGGGLAGLLVGTLDVVLDSSARVAPYRILYQTPDSLVYWTIACGGSRKEVTEHWEWLEQNLLQTLSIFENENDVTTFVRGKIQGIIAEYNKINDVKEDEDTEKFKEAIVKFHRLFGMPEEEKLVNYYSCSYWKGRVPRQGWMYLSINHLCFSSFLMGREAKLVIRWVDITQLEKNATLLLPDMIKVSTRSSEHFFSVFLNINETFKLMEQLANIAMRQLLDNEGFEQDRSLPKLKKKSPKKVSALKRDLDARAKSERYRALFRLPKDEKLDGHTDCTLWTPFNKMHILGQMFVSTNYICFTSKEENLCSLIIPLREVTIVEKADSCSVLPSPLSISTRNRMTFLFANLKDRDFLVQRISDFLQQTTSRIYSDKEFSGSCNSSDDEVYSRPSSLVSSSPQRSTSSDADGERPFNLNGNSVPTATQTLMTMYRRRSPEEFNPKLAKEFLKEQAWKIHFAEYGQGICMYRTEKTRELVLKGIPESMRGELWLLLSGAINEKATHPGYYEGLVEKSMGKYNLATEEIERDLHRSLPEHPAFQNEMGIAALRRVLTAYAFRNPNIGYCQAMNIVTSVLLLYAKEEEAFWLLVALCERMLPDYYNTRVVGALVDQGVFEELARDYVPQLYDCMQDLGVISTISLSWFLTLFLSVMPFESAVVVVDCFFYEGIKVIFQLALAVLDANVDKLLNCKDDGEAMTVLGRYLDSVTNKDSTLPPIPHLHSLLSDDVGPYPAVDIFRLIGTSYEKFGTIRADLIEQMRFKQRLKVIQTLEDTTKRNVVRTIVTETSFTIDELEELYALFKAEHLTSCYWGGSSNALDRHDPSLPYLEQYRIDFEQFKGMFVLLFPWACGTHSDVLASRLFQLLDENGDSLINFREFVSGLSAACHGDLTEKLKLLYKMHVLPEPSCDQDEPDSAFEATQYFFEDITPECTHVVGLDSRGKQSADDGFVTVSLKQDRGKRANSQENRNYLKLWTAENKSKSKTAKDLPKLNQGQFIELCKTMYNMFSEDPNEQELYHATAAVTSLLLEIGEVGKFFITQPAKEDAVPGPPCGQAIPGMLFPKKGSSQSYVVESTEPLTASLAVDSEEHSLGGQMEDIKLEDSSPRDNGACSSMLISDDDTKDDSSMSSYSVLSAGSHEEDKLHCEDIGEDTVLVRSSQGRATLPRSSSLDRDWAITFEQFLASLLTEPALVRYFDKPVCMMARVTSAKNIRMMGKPLTSASDYEISALSG | – | – | – | – | – | down | −1.25 | −0.639 | −1.148 | −1.5035 | −1.709
